This data set deals with eVP35 IID WT (Ebola virus (EBOV)). Put plainly: filter binding.

Where only a bound is given, the exact number is not on record here.

In turn, dsRNA showed a binding signal (fraction bound) of under 0.3.

The values above are taken from publication PMC3909728.
